Reference: US20160068605A1 (Janssen / Centocor, published 2016)

How the values were obtained:
[1] = target: T1, cell-surface CD3 epsilon on primary human T cells (human, UniProt P07766 23-207); experiment: flow cytometry competition with labeled CD3B146 on T cells
T1 construct: whole, on cells; part of the CD3/TCR complex on the cells
Description: (§1) The format involved competition binding using a fixed concentration of labeled anti-CD3 mAb of known affinity and increasing concentrations of unlabeled test Abs (Ashkenazi A et al. PNAS: 88:10535, 1991.).

[2] = target: T2, cell-surface CD3 epsilon on primary cynomolgus T cells (cynomolgus monkey, UniProt Q95LI5 22-198); experiment: as above
T2 construct: whole, on cells; also called cynomolgus CD3e; Cyno T-cells
T2 sequence (Q95LI5 22-198): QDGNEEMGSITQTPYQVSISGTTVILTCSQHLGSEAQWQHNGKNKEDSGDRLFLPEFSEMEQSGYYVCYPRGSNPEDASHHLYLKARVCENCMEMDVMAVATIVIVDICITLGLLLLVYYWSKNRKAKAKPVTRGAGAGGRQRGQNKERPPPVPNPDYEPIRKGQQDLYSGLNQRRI
Description: as §1

[3] = target: T3, cyno CD123 ECD displayed on pDisplay-transfected cells (cynomolgus monkey); experiment: MSD cell binding on 293F pDisplay cells; fold change over background; parental 293F cells as control
T3 construct: ECD anchored on the surface of stably transfected HEK293 cells; also called cynoCD123 SP1 cells; cynoCD123 cells
T3 chain: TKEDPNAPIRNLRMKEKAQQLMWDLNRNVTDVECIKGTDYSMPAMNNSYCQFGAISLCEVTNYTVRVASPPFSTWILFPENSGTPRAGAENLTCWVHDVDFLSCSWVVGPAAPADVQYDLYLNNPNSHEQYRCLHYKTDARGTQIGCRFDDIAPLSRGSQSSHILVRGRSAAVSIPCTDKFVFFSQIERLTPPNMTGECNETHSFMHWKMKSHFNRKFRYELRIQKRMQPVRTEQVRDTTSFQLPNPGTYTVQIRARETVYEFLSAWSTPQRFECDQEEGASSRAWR
Protocol: (§2) The object of the screening assay was to identify antibodies that bound to cells expressing hCD123 SP1 and SP2 as well as cross reactivity with cells expressing cynoCD123 SP1.
(§3) Cells were immobilized and phages were assayed in triplicate. […] 5000 cells per well were plated into a 384 well plate (MA6000, cat. L21XB, MSD) and allowed to adhere for 2 hr. Cells were then blocked with 20% FBS in PBS (Gibco) for 15 mins. Antibody supernatants were then added and left at RT for 1 hr. Cells were washed 3 times with PBS and a ruthenium labeled secondary antibody (Jackson Immuno Research) was then added at 1 μg/mL and incubated for 1 hr at room temperature. A further washing step was then applied and 35 μL per well of MSD Read buffer T (surfactant free) was then added and incubated for 30 min for detection. Plates were then read using Sector Imager 2400 (MSD). Data was normalized to controls and graphed using GraphPad Prism Version 5. A positive binder was determined to be a hit with a signal 3× greater than background (FIGS. 2A, B and C).

[4] = target: T4, human CD123 SP2 ECD displayed on pDisplay-transfected cells (human, UniProt P26951 101-305); experiment: as above
T4 construct: ECD anchored on the surface of stably transfected HEK293 cells; also called hCD123 SP2 cells; pDisplay CD123SP2
T4 sequence: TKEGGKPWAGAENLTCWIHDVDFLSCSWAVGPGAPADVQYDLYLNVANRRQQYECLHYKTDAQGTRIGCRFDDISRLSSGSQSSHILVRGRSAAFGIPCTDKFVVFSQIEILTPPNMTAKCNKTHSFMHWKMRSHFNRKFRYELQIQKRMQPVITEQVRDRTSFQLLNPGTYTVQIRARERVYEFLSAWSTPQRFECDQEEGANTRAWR
Protocol: as §2, §3

[5] = target: T5, Recombinant human CD123 SP2 ECD protein (human, UniProt P26951 101-303); experiment: SPR ProteOn, captured mAb
T5 construct: also called rhCD123 SP2; CD123 ECD SP2
T5 sequence: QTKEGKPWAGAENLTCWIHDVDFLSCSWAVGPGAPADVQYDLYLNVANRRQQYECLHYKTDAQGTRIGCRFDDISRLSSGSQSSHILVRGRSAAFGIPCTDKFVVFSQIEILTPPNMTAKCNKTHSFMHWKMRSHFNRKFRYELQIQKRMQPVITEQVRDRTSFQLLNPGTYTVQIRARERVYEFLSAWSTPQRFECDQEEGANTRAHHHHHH
Protocol: (§4) The biosensor surface was prepared by covalently coupling Goat anti-Human IgG (Fc) to the surface of a GLC chip (BioRad) using the manufacturer instructions for amine-coupling chemistry. […] The RU immobilized also included a goat anti-mouse Fc antibody that was added to capture other antibodies not included in the ones reported here. Since the mixture was 1:1 about 50% of these RU immobilized are expected to be goat anti-human Fc. The kinetic experiments were performed at 25° C. in running buffer (PBS pH 7.4, 0.005% P20, 3 mM EDTA). […] The reference spots (Goat anti-Human IgG (Fc)-modified surface) containing no candidate captured were used as a reference surface. Capture of mAb was followed by 3 min injection (association phase) of antigen at 40 μL/min, followed by 10 min of buffer flow (dissociation phase). […] Data was processed on the instrument software. Double reference subtraction of the data was performed by subtracting the curves generated by buffer injection from the reference-subtracted curves for analyte injections. Kinetic analysis of the data was performed using 1:1 Langmuir binding model with group fit. The result for each mAb was reported in the format of Kₐ (kon or on-rate), Kd (koff or off-rate), KD (Equilibrium dissociation constant) (Table 5).

[6] = target: T6, Recombinant human CD123 SP1 ECD-His tag protein (human, UniProt P26951 20-305); experiment: SPR ProteOn, captured mAb
T6 construct: bought from R&D Systems (#301-R3/CF); biotinylated for some assays; also called rhCD123 SP1; huCD123 ECD SP1
T6 sequence: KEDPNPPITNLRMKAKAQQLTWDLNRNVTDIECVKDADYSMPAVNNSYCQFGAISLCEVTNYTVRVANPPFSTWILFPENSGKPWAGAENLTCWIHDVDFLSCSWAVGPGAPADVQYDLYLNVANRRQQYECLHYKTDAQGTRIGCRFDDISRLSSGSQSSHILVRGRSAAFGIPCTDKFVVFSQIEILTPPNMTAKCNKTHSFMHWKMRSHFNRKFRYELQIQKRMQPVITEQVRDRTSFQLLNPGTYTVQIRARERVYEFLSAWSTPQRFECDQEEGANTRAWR
Protocol: as §4

T1 sequence (P07766 23-207): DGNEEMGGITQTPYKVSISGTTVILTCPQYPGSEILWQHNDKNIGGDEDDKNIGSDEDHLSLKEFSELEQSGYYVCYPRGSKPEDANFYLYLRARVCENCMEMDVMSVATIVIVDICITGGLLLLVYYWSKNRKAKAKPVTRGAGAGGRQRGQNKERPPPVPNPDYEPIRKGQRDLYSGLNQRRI

B1: CD123 null 1 (bispecific antibody, human IgG4 S228P, lambda, F234A L235A)
heavy: EVQLVESGGGLVQPGGSLRLSCAASGFTFNTYAMNWVRQAPGKGLEWVARIRSKYNNYATYYAASVKGRFTISRDDSKNSLYLQMNSLKTEDTAVYYCARHGNFGNSYVSWFAYWGQGTLVTVSSASTKGPSVFPLAPCSRSTSESTAALGCLVKDYFPEPVTVSWNSGALTSGVHTFPAVLQSSGLYSLSSVVTVPSSSLGTKTYTCNVDHKPSNTKVDKRVESKYGPPCPPCPAPEAAGGPSVFLFPPKPKDTLMISRTPEVTCVVVDVSQEDPEVQFNWYVDGVEVHNAKTKPREEQFNSTYRVVSVLTVLHQDWLNGKEYKCKVSNKGLPSSIEKTISKAKGQPREPQVYTLPPSQEEMTKNQVSLTCLVKGFYPSDIAVEWESNGQPENNYKTTPPVLDSDGSFLLYSKLTVDKSRWQEGNVFSCSVMHEALHNHYTQKSLSLSLGK
light: QTVVTQEPSLTVSPGGTVTLTCRSSTGAVTTSNYANWVQQKPGQAPRGLIGGTNKRAPGTPARFSGSLLGGKAALTLSGVQPEDEAEYYCALWYSNLWVFGGGTKLTVLGQPKAAPSVTLFPPSSEELQANKATLVCLISDFYPGAVTVAWKADSSPVKAGVETTTPSKQSNNKYAASSYLSLTPEQWKSHRSYSCQVTHEGSTVEKTVAPTECS
VH: not shown
VL: not shown
notes: also called B21M IgG4 x CD3B219
- Kd [1]: 13.2 nM
- Kd [2]: 13.4 nM

B2: CD123 null 4 (bispecific antibody, human IgG4 S228P, lambda, F234A L235A)
heavy: EVQLVESGGGLVQPGGSLKLSCAASGFTFNTYAMNWVRQASGKGLEWVGRIRSKYNAYATYYAASVKGRFTISRDDSKNTAYLQMNSLKTEDTAVYYCTRHGNFGNSYVSWFAYWGQGTLVTVSSASTKGPSVFPLAPCSRSTSESTAALGCLVKDYFPEPVTVSWNSGALTSGVHTFPAVLQSSGLYSLSSVVTVPSSSLGTKTYTCNVDHKPSNTKVDKRVESKYGPPCPPCPAPEAAGGPSVFLFPPKPKDTLMISRTPEVTCVVVDVSQEDPEVQFNWYVDGVEVHNAKTKPREEQFNSTYRVVSVLTVLHQDWLNGKEYKCKVSNKGLPSSIEKTISKAKGQPREPQVYTLPPSQEEMTKNQVSLTCLVKGFYPSDIAVEWESNGQPENNYKTTPPVLDSDGSFLLYSKLTVDKSRWQEGNVFSCSVMHEALHNHYTQKSLSLSLGK
light: QAVVTQEPSLTVSPGGTVTLTCRSSTGAVTTSNYANWVQQKPGQAPRGLIGGTNKRAPGTPARFSGSLLGGKAALTLSGAQPEDEAEYYCALWYSNLWVFGGGTKLTVLGQPKAAPSVTLFPPSSEELQANKATLVCLISDFYPGAVTVAWKADSSPVKAGVETTTPSKQSNNKYAASSYLSLTPEQWKSHRSYSCQVTHEGSTVEKTVAPTECS
VH: not shown
VL: not shown
notes: also called B21M IgG4 x CD3B220
- Kd [1]: 48.6 nM
- Kd [2]: 36.8 nM

B3: CD123 null 3 (bispecific antibody, human IgG4 S228P, lambda, F234A L235A)
heavy: EVQLLESGGGLVQPGGSLRLSCAASGFTFNTYAMNWVRQAPGKGLEWVARIRSKYNNYATYYADSVKGRFTISRDNSKNTLYLQMNSLRAEDTAVYYCVKHGNFGNSYVSWFAYWGQGTLVTVSSASTKGPSVFPLAPCSRSTSESTAALGCLVKDYFPEPVTVSWNSGALTSGVHTFPAVLQSSGLYSLSSVVTVPSSSLGTKTYTCNVDHKPSNTKVDKRVESKYGPPCPPCPAPEAAGGPSVFLFPPKPKDTLMISRTPEVTCVVVDVSQEDPEVQFNWYVDGVEVHNAKTKPREEQFNSTYRVVSVLTVLHQDWLNGKEYKCKVSNKGLPSSIEKTISKAKGQPREPQVYTLPPSQEEMTKNQVSLTCLVKGFYPSDIAVEWESNGQPENNYKTTPPVLDSDGSFLLYSKLTVDKSRWQEGNVFSCSVMHEALHNHYTQKSLSLSLGK
light: QTVVTQEPSLTVSPGGTVTLTCRSSTGAVTTSNYANWVQQKPGQAPRGLIGGTNKRAPGTPARFSGSLLGGKAALTLSGVQPEDEAEYYCALWYSNLWVFGGGTKLTVLGQPKAAPSVTLFPPSSEELQANKATLVCLISDFYPGAVTVAWKADSSPVKAGVETTTPSKQSNNKYAASSYLSLTPEQWKSHRSYSCQVTHEGSTVEKTVAPTECS
VH: not shown
VL: not shown
notes: also called B21M IgG4 x CD3B218
- Kd [1]: 200 nM
- Kd [2]: 237 nM

B4: I3RB34 (antibody, IgG1, V domains shown)
VH: QVQLVQSGAEVKKPGSSVKVSCKASGGTFSSYAISWVRQAPGQGLEWMGGIIPIFGTANYAQKFQGRVTITADESTSTAYMELSSLRSEDTAVYYCARGWSYYRLDYWGQGTLVTVSS
VL: EIVLTQSPATLSLSPGERATLSCRASQSVDKWLAWYQQKPGQAPRLLIYYASNRATGIPARFSGSGSGTDFTLTISSLEPEDFAVYYCQQFDRAPFTFGQGTKVEIK
notes: IgG1; also called 13RB34
- binding result [3]: binds
- binding result [4]: no binding (tested: 10 µg/mL)
- binding result [5]: no binding (tested: 400 nM)
- Kd [6]: 56.8 nM
- koff [6]: 0.0283 s⁻¹
- kon [6]: 497000 M⁻¹ s⁻¹

B5: I3RB38 (antibody, IgG1, V domains shown)
VH: QVQLVQSGAEVKKPGSSVKVSCKASGGTFSSYGISWVRQAPGQGLEWMGGIIPIFGTANYAQKFQGRVTITADESTSTAYMELSSLRSEDTAVYYCARDLMIWRFENFDYWGQGTLVTVSS
VL: not shown
notes: IgG1
- binding result [4]: no binding (tested: 10 µg/mL)
- binding result [5]: no binding (tested: 400 nM)
- Kd [6]: 0.49 nM
- koff [6]: 0.000434 s⁻¹
- kon [6]: 888000 M⁻¹ s⁻¹

B6: I3RB7 (antibody, IgG1, V domains shown)
VH: QVQLVQSGAEVKKPGSSVKVSCKASGGTFSSYAISWVRQAPGQGLEWMGGIIPIFGTANYAQKFQGRVTITADESTSTAYMELSSLRSEDTAVYYCARGKRWLADAGDFDYWGQGTLVTVSS
VL: not shown
notes: IgG1; also called I3RB07
- binding result [4]: no binding (tested: 10 µg/mL)
- binding result [5]: no binding (tested: 400 nM)
- Kd [6]: 15.4 nM
- koff [6]: 0.0147 s⁻¹
- kon [6]: 954000 M⁻¹ s⁻¹

B7: I3RB29 (antibody, IgG1, V domains shown)
VH: QVQLVQSGAEVKKPGSSVKVSCKASGGTFSSYAISWVRQAPGQGLEWMGGIIPIFGTANYAQKFQGRVTITADESTSTAYMELSSLRSEDTAVYYCARDSRIWSFSLDYWGQGTLVTVSS
VL: DIQMTQSPSSLSASVGDRVTITCRASQSIGEWLNWYQQKPGKAPKLLIYAASSLQSGVPSRFSGSGSGTDFTLTISSLQPEDFATYYCQQYYHFPLTFGQGTKVEIK
notes: IgG1
- binding result [4]: no binding (tested: 10 µg/mL)
- binding result [5]: no binding (tested: 400 nM)
- Kd [6]: 5.9 nM
- koff [6]: 0.00132 s⁻¹
- kon [6]: 224000 M⁻¹ s⁻¹
